{
  "source": "patent EP4431525A1",
  "about": "(Anaveon AG, dated 2024)",
  "binders": {"B1": {"name": "z2-XVT458-m1 (antibody, V domains shown)", "VH": "QVQLVQSGAEVKKPGASVKVSCKASGYTFTNFYIHWVRQAPGQGLEWMGSIYPNYGFTAYNQKFKDRVTMTVDTSTSTAYMELRSLRSDDTAVYYCARGYSYAMDYWGQGTTVTVSS", "VL": "DIQMTQSPSSVSASVGDRVTITCSASQGIWGDLNWYQQKPGKAPKLLIYHTSQLHSDVPSRFSGSGSGTDFTLTISSLQPEDFATYYCQGYSKDLLTFGGGTKLEIK", "notes": "IgG format; also called XVT458-z2-m1; XVT458-z2-ml"}, "B2": {"name": "z2-XVT458-m3 (antibody, V domains shown)", "VH": "B1 VH with S50R, F57I", "VL": "B1 VL with W30S, L54R", "notes": "IgG format; also called XVT458-z2-m3; XVT458-Z2-M3"}, "B3": {"name": "z2-XVT458-m6 (antibody, V domains shown)", "VH": "B1 VH with F57I", "VL": "B1 VL with W30S", "notes": "IgG format; also called XVT458-z2-m6; XVT458-Z2-m6"}},
  "key": {"[1]": {"target": "T1, human PD-1 expressed on cells (human, UniProt Q15116 25-288)", "T1 construct": "whole, on cells; also called hPD-1; PDCD1", "T1 sequence (Q15116 25-288)": "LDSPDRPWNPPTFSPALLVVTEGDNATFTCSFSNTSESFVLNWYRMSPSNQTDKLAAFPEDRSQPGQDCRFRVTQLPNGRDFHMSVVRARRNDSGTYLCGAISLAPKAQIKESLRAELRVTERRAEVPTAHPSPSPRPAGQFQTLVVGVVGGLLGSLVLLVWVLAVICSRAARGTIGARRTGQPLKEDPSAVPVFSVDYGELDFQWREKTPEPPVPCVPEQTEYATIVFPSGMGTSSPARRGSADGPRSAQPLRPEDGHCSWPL", "assay": "Retrogenix cell microarray, HEK293 cells"}, "[2]": {"target": "T2, hPD-1 Avi-Tag Biotin (AcroBiosystems, PD1-H82E4) (human, UniProt Q15116 25-167, biotin on Avi-Tag)", "T2 construct": "bought; also called recombinant hPD-1", "T2 sequence (Q15116 25-167 limits assumed)": "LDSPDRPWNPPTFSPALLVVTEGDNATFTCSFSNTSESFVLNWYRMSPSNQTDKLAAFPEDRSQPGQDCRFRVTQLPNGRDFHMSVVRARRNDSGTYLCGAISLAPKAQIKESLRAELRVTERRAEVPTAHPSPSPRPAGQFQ", "assay": "IgG format; ELISA / SPR"}},
  "note": "Numbering of substitutions follows the chain as printed.",
  "data": [
    {"binder": "B1", "values": [
      {"measurement": "binding result", "setting": "[1]", "value": "binds"},
      {"measurement": "binding result", "setting": "[2]", "value": "binds"}
    ]},
    {"binder": "B2", "values": [
      {"measurement": "binding result", "setting": "[1]", "value": "binds"},
      {"measurement": "binding result", "setting": "[2]", "value": "binds"}
    ]},
    {"binder": "B3", "values": [
      {"measurement": "binding result", "setting": "[1]", "value": "binds"},
      {"measurement": "binding result", "setting": "[2]", "value": "binds"}
    ]}
  ]
}
